Consider 1 substance from patent US9193790B2, “Use of antagonists of the interaction between HIV GP120 and A4B7 integrin” (priority 2006, dated 2015).

Entries after “also recorded” stand apart in the source; their conditions may differ. Ends that are not written are not given here.

In test [1] the target is T1, α4β7 integrin on CD8+ T-cells (Homo sapiens, UniProt P13612+P26010).
T1 construct: Purified CD4+ T cells and NK cells were obtained by negative selection using magnetic beads; On NKs β7 integrin pairs with α4 integrin (CD49d); endogenous in cells; host or cells: freshly isolated NK cells; OKT3/IL2/retinoic acid-cultured PBMCs (CD8-depleted, i.e. CD4+ T cells) and CD8+ T cells from healthy donors
T1 sequence (P13612 34-1032): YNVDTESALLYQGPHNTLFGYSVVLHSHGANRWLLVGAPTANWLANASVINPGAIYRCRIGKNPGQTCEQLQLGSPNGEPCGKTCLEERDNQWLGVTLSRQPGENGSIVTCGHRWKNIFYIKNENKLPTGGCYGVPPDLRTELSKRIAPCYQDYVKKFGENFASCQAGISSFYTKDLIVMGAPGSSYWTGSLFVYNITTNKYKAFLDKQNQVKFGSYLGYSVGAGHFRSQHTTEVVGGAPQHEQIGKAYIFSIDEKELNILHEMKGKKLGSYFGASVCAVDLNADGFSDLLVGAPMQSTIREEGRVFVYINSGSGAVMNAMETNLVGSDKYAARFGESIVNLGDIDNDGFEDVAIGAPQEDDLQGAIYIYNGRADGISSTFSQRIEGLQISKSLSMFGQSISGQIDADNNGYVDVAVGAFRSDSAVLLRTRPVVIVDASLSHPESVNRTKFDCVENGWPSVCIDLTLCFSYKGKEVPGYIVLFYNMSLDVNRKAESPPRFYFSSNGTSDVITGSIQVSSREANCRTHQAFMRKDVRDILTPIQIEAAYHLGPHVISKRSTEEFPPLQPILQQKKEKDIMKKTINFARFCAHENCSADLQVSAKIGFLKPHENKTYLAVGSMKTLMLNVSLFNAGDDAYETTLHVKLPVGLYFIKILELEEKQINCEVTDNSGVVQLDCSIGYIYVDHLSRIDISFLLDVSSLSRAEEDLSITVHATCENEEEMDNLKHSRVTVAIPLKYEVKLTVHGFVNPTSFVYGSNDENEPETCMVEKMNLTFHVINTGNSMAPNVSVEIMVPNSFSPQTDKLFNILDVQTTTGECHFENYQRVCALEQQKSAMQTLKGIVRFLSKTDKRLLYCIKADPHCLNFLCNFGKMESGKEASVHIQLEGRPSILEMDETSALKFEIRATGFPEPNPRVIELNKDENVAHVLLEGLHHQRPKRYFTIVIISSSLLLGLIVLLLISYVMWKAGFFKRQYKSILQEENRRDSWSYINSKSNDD
T1 sequence (P26010 20-798): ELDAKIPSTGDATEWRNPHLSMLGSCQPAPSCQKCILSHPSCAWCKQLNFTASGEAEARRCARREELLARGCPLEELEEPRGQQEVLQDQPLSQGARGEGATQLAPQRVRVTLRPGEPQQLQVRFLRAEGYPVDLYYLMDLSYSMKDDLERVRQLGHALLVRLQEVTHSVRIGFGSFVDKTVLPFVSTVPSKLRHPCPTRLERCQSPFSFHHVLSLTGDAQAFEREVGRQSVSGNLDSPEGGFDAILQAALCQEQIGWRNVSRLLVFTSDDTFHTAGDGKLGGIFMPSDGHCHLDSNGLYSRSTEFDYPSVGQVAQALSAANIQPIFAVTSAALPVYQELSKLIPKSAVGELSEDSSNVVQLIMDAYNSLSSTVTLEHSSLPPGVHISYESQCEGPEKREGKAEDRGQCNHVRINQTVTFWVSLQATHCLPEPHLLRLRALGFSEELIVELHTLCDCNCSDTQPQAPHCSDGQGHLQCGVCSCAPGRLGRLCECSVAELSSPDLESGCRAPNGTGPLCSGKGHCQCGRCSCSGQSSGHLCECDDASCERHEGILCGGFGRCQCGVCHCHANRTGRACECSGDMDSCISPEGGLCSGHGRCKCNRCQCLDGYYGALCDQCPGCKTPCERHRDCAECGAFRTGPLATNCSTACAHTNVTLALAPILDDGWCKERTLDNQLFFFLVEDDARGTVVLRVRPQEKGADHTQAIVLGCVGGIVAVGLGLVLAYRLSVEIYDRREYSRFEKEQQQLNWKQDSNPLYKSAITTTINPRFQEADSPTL
Nature of the test: Flow cytometry: gp120 binding to RA-cultured CD8+ T-cells. As to conditions: peptide at 0.19 μM-12.5 μM (FIG. 8a). Here is the method: Cells and Reagents. Freshly isolated PBMCs were obtained from healthy donors and separated by Ficoll-Hypaque. Purified CD4+ T cells and NK cells were obtained by negative selection using magnetic beads (StemCell Technologies, Vancouver, BC). Cultured PBMCs were activated with OKT3, IL2 (201 U/ml) and retinoic acid (RA, 10 nM) unless otherwise specified. RA was obtained from Sigma Chemical (St. Louis, Mo.). Recombinant Ig-fusion proteins (MadCAM, VCAM-1, E-cadherin) were purchased from R&D Systems (Minneapolis, Minn.). Integrin antibodies were obtained from Serotech Laboratories Ltd. (Raleigh, N.C.) and Chemicon (Temecula, Calif.), while FITC, PE, APC surface marker antibodies were acquired from Beckton Dickinson (San Diego, Calif.). Cyclic peptides CWLDVC (SEQ ID NO:1) and the scrambled control peptide CDLWC (SEQ ID NO:31) were obtained from NeoMPS (San Diego, Calif.). Recombinant gp120s were produced and purified as described in supplemental methods, using hollow-fiber bioreactors (Fibercell Systems, Frederick, Md.). Integrin cDNA expression vectors were acquired from ORIGENE™ (ORIGENE is a trademark of OriGene Technologies, Inc., Rockville, Md.). […]
Recombinant gp120 protein labeling. […] Biotin incorporation was determined by reacting gp120s with 4′-hydroxyazobenzene-2-carboxylic acid-avidin conjugates (HABA) per the manufacturer's instructions (Pierce Chemical, Rockford, Ill.). […]
In general terms: In flow cytometry, cells or beads pass a laser one at a time.

Test [2] has as its target T2, α4β7 integrin (Homo sapiens, UniProt P13612+P26010).
T2 sequence (P13612 34-1032): T1 sequence (P13612 34-1032)
T2 sequence (P26010 20-798): T1 sequence (P26010 20-798)
As to conditions: fibronectin, VCAM, MadCAM (Vanderslice et al. 1997); cited from earlier work.

As for “CWLDVC (also: cyclic, kind of ring not given here)”, the “inhibition of gp120-binding to RA cultured CD8+ T-cells by cyclic peptide” value in test [1] is “inhibited by CWLDVC in a dose dependent manner”. In addition, in test [2], the “inhibition of binding of natural ligands to α4 / α4β7 integrin” value is “inhibit α4 integrin subunit binding to fibronectin, VCAM and MadCAM; also recorded: inhibit binding of all three natural ligands”.
